Values quoted from earlier work in paper PMC5487772.
pKd: −log10 of the molar value. Read-outs that look alike come from different tables or passages of the source.

Key:
[1] = target: phosphacan (UniProt Q62656)
[2] = target: phosphacan (UniProt Q62656); remark: listed apart in the source

UniProt Q62656, sequence (Q62656 25-1637): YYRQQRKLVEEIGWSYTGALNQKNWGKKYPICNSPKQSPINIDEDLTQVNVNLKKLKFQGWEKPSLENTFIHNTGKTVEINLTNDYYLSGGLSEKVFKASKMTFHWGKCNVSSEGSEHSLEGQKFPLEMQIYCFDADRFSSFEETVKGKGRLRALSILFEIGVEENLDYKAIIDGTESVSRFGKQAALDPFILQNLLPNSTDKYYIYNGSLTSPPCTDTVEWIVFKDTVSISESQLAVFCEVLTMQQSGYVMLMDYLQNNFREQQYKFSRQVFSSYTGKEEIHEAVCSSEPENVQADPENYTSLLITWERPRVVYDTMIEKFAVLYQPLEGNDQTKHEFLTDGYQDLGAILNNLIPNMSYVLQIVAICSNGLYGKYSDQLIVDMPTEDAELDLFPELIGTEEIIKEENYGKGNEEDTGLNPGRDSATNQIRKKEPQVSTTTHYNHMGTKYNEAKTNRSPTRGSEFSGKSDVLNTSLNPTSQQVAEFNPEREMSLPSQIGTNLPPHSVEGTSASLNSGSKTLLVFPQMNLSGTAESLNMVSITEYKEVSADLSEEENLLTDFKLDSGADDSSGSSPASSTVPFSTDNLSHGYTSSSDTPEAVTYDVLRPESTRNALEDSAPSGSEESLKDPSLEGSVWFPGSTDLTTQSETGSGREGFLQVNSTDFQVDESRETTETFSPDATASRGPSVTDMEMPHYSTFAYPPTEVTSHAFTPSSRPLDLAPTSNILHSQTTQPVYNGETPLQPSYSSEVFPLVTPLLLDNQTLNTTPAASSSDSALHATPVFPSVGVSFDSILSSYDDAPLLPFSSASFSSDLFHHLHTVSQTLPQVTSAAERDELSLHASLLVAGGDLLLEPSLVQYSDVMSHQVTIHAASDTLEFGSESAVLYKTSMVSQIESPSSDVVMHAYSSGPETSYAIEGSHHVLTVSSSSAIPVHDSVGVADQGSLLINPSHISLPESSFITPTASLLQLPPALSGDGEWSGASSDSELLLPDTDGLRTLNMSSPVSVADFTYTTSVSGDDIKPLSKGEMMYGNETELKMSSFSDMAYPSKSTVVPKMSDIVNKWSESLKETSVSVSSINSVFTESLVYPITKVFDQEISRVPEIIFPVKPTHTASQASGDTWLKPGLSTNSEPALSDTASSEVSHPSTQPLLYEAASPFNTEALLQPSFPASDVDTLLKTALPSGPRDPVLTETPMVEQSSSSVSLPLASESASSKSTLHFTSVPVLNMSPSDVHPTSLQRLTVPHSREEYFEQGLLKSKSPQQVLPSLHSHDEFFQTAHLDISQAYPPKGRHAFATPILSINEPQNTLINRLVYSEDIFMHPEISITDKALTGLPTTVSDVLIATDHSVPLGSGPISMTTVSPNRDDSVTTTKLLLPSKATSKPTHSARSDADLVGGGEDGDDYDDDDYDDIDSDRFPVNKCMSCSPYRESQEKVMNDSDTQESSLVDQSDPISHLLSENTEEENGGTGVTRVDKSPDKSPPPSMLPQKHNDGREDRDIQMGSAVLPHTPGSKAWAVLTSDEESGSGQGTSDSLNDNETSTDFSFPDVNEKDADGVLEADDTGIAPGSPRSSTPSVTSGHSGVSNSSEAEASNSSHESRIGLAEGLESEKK

Row | pKd [1] | pKd [2] | Substance
1 | 9.30 |  | Ng-CAM (from UniProt Q03696)
2 |  | 9.30 | N-CAM (from UniProt P13591)
